Test results from publication doi:10.1101/2024.08.29.610253.

Key:
[1] = target: interface II mutations (CC2N and C2B variants, ITC); experiment: ITC
[2] = target: liprin-α2_CC2N E380R (human) (UniProt O75334); experiment: ITC
RIM1_C2B (rat) = experiment: SEC-MALS

Chain of liprin-α2_CC2N E380R (human) (O75334 300-404 E380R): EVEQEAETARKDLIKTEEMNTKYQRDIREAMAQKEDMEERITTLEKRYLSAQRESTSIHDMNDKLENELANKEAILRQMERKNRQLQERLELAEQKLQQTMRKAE

- fold decrease in binding affinity [1]: 5 fold
- fold decrease in binding affinity [2]: 2 fold
- stoichiometry N (RIM1_C2B (rat)): 2
Substance: RIM1_C2B (domain or fragment)
